In patent US20230357395A1:

Target: NKp30 (species and construct not stated) (UniProt O14931)
Assay: ELISA
Details: ligand

Chain of B7-H6 (Q68D85 25-262): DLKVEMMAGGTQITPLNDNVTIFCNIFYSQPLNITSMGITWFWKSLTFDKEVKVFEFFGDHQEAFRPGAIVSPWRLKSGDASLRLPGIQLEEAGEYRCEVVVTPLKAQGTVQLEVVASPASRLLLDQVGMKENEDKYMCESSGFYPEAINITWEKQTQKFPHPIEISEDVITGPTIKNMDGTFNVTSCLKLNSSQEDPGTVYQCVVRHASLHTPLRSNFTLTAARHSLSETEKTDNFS
Chain of NKp30 (species and construct not stated) (O14931 19-135): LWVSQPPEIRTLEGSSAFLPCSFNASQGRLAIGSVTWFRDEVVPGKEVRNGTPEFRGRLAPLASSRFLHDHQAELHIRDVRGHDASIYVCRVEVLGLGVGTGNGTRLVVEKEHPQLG

Kd: 6.56 nM
Substance: B7-H6 (from UniProt Q68D85 25-262)
